In experiment [1] the target is T1, human CD40 (human, UniProt P25942 21-277).
T1 construct: whole, on cells; also called huCD40
The experiment can be described thus: FACS on CHO cells expressing human CD40 (FIGS. 2C and 2D).

For experiment [2], the target named is T1, human CD40. Put plainly: FACS on CHO cells expressing human CD40 (FIG. 2C).
Experiment [3] concerns the target T1, human CD40. Put plainly: FACS on CHO cells expressing human CD40 (FIG. 2D).
The next experiment deals with T2, human B7H3 (human, UniProt Q5ZPR3 29-534).
T2 construct: whole, on cells; CHO cells over-expressing human B7H3 (CHO-B7H3); also called CD276; cellular B7H3
T2 sequence (looked up): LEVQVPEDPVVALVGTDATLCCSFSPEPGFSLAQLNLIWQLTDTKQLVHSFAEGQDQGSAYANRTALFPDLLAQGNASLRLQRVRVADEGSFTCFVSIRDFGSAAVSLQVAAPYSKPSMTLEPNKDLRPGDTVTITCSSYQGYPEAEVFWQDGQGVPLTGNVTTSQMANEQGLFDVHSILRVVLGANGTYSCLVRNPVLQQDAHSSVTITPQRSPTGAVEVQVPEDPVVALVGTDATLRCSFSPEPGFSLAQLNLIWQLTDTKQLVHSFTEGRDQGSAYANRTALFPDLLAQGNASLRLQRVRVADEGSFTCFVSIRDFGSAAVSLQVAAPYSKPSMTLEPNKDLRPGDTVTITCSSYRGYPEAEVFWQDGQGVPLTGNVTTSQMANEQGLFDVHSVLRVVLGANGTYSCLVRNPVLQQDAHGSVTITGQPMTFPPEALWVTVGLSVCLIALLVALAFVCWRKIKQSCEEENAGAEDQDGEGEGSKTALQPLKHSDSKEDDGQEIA
Put plainly: FACS on CHO cells over-expressing human B7H3. How it is done:
FACS analysis was performed to evaluate the binding properties of exemplary anti-B7H3 humanized antibodies. Briefly, CHO cells over-expressing human B7H3 were harvested using trypsin-EDTA partial digestion followed by centrifugation at 1000 g for 3 minutes. The cells were re-suspended in cold PBS-BSA (2%) at 2×10⁶/mL and aliquoted to 100 μL/tube. The anti-B7H3 humanized antibodies were serially diluted in PBS-BSA and 50 μL of each was added to the CHO-B7H3 cells. The cell were mixed and incubated at 4° C. in the dark for 2 hours, then washed with PBS-BSA twice. Secondary antibody conjugates (goat F(ab′)₂ anti-human IgG-Fc (PE), pre-adsorbed, Abcam #ab98596) at 1/500 dilution, 100 μL/well, was used to resuspend the cells. The cells were incubated 4° C. in dark for another 1 hour and washed twice with PBS-BSA, followed by fixation in 2% PFA/PBS, and then subjected to FACS analysis.
Binding of the antibodies to human B7H3 expressing CHO cells were evaluated and the mean fluorescence intensity is plotted in histograms as shown in FIGS. 1A-1C. […] However, Ly1426 (CDR grafted, without back mutation) didn't bind to cellular B7H3.

T1 sequence (P25942 21-277): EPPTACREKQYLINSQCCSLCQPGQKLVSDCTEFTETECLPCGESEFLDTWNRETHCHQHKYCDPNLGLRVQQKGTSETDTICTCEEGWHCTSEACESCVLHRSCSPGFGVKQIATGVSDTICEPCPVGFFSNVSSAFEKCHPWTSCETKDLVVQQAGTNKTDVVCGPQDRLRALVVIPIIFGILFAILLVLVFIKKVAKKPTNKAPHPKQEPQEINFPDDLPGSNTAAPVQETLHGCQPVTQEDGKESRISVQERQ

B1: Ly1581 (bispecific antibody)
heavy: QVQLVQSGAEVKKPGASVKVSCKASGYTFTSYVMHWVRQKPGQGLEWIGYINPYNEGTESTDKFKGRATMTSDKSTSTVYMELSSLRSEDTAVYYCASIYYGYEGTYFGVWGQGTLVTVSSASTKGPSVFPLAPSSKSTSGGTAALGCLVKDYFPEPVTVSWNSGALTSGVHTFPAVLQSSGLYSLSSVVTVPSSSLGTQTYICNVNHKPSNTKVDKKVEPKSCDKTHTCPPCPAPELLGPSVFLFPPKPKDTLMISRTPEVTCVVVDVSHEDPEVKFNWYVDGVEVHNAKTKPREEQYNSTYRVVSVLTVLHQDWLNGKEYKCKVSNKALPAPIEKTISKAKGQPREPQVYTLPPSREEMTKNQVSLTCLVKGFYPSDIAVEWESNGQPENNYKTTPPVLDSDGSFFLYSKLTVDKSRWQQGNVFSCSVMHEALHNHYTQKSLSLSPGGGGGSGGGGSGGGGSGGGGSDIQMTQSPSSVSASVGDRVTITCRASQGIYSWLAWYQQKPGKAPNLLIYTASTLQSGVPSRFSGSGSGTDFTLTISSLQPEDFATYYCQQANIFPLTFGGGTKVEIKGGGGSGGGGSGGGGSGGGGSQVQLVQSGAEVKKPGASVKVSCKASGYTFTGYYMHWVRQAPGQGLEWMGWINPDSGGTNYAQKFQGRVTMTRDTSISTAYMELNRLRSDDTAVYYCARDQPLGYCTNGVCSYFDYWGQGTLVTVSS
light: EIVLTQSPATLSLSPGERATLSCRASSSVSYMHWYQQKPGQAPRPWIYATSNLASGIPARFSGSRSGTDYTLTISSLEPEDFAVYYCQQWSSNTLTFGGGTKVEIKRTVAAPSVFIFPPSDEQLKSGTASVVCLLNNFYPREAKVQWKVDNALQSGNSQESVTEQDSKDSTYSLSSTLTLSKADYEKHKVYACEVTHQGLSSPVTKSFNRGEC
notes: also called anti-B7H3/CD40 bi-specific antibody Ly1581
In the case of B1, the binding result in the experiment with human CD40 [1] was “binds”.

B2: Ly1660 (bispecific antibody, human IgG1, kappa)
heavy: QVQLVQSGAEVKKPGASVKVSCKASGYTFTSYVMHWVRQKPGQGLEWIGYINPYNEGTESTDKFKGRATMTSDKSTSTVYMELSSLRSEDTAVYYCASIYYGYEGTYFGVWGQGTLVTVSSASTKGPSVFPLAPSSKSTSGGTAALGCLVKDYFPEPVTVSWNSGALTSGVHTFPAVLQSSGLYSLSSVVTVPSSSLGTQTYICNVNHKPSNTKVDKKVEPKSCDKTHTCPPCPAPELLGPSVFLFPPKPKDTLMISRTPEVTCVVVDVSHEDPEVKFNWYVDGVEVHNAKTKPREEQYNSTYRVVSVLTVLHQDWLNGKEYKCKVSNKALPAPIEKTISKAKGQPREPQVYTLPPCREEMTKNQVSLWCLVKGFYPSDIAVEWESNGQPENNYKTTPPVLDSDGSFFLYSKLTVDKSRWQQGNVFSCSVMHEALHNHYTQKSLSLSPGK
chain 1: not shown
light: EIVLTQSPATLSLSPGERATLSCRASSSVSYMHWYQQKPGQAPRPWIYATSNLASGIPARFSGSRSGTDYTLTISSLEPEDFAVYYCQQWSSNTLTFGGGTKVEIKRTVAAPSVFIFPPSDEQLKSGTASVVCLLNNFYPREAKVQWKVDNALQSGNSQESVTEQDSKDSTYSLSSTLTLSKADYEKHKVYACEVTHQGLSSPVTKSFNRGEC
chain 2: DIQMTQSPSSVSASVGDRVTITCRASQGIYSWLAWYQQKPGKAPNLLIYTASTLQSGVPSRFSGSGSGTDFTLTISSLQPEDFATYYCQQANIFPLTFGGGTKVEIKSSASTKGPSVFPLAPSSKSTSGGTAALGCLVKDYFPEPVTVSWNSGALTSGVHTFPAVLQSSGLYSLSSVVTVPSSSLGTQTYICNVNHKPSNTKVDKKVEPKSC
notes: Four-chain heterodimer format; also called anti-B7H3/CD40 bi-specific antibody Ly1660
Consider B2, for which the binding result in the experiment with human CD40 [2] is “binds”.

B3: Ly1662 (bispecific antibody)
heavy: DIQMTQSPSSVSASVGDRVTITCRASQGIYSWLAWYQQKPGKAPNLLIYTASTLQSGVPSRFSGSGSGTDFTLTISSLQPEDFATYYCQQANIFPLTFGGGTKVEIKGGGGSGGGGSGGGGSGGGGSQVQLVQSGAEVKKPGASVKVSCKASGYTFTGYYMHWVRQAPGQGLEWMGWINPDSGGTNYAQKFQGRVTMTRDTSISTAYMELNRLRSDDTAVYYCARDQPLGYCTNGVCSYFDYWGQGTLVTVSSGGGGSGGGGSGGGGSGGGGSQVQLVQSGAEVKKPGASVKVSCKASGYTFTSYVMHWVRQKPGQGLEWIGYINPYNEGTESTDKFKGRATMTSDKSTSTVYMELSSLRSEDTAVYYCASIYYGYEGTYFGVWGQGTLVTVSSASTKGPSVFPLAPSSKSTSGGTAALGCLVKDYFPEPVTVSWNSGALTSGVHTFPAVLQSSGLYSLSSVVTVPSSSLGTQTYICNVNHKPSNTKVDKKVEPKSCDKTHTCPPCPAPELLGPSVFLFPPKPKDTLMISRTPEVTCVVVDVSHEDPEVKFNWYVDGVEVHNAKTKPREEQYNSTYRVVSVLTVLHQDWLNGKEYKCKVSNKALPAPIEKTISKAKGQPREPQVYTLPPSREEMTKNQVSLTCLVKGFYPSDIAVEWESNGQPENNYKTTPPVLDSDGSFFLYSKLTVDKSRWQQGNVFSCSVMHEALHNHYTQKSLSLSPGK
light: EIVLTQSPATLSLSPGERATLSCRASSSVSYMHWYQQKPGQAPRPWIYATSNLASGIPARFSGSRSGTDYTLTISSLEPEDFAVYYCQQWSSNTLTFGGGTKVEIKRTVAAPSVFIFPPSDEQLKSGTASVVCLLNNFYPREAKVQWKVDNALQSGNSQESVTEQDSKDSTYSLSSTLTLSKADYEKHKVYACEVTHQGLSSPVTKSFNRGEC
notes: Two-chain format; also called anti-B7H3/CD40 bi-specific antibody Ly1662
B3: in the experiment with human CD40 [2], the binding result was “binds”.

B4: Ly1661 (bispecific antibody, human IgG1, kappa)
heavy: QVQLVQSGAEVKKPGASVKVSCKASGYTFTSYVMHWVRQKPGQGLEWIGYINPYNEGTESTDKFKGRATMTSDKSTSTVYMELSSLRSEDTAVYYCASIYYGYEGTYFGVWGQGTLVTVSSASTKGPSVFPLAPSSKSTSGGTAALGCLVKDYFPEPVTVSWNSGALTSGVHTFPAVLQSSGLYSLSSVVTVPSSSLGTQTYICNVNHKPSNTKVDKKVEPKSCDKTHTCPPCPAPELLGPSVFLFPPKPKDTLMISRTPEVTCVVVDVSHEDPEVKFNWYVDGVEVHNAKTKPREEQYNSTYRVVSVLTVLHQDWLNGKEYKCKVSNKALPAPIEKTISKAKGQPREPQVYTDPPSREEMTKNQVSLTCEVKGFYPSDIAVEWESNGQPENNYKTTPPVLDSDGSFFLYSKLTVDKSRWQQGNVFSCSVMHEALHNHYTQKSLSLSPGK
chain 1: not shown
light: EIVLTQSPATLSLSPGERATLSCRASSSVSYMHWYQQKPGQAPRPWIYATSNLASGIPARFSGSRSGTDYTLTISSLEPEDFAVYYCQQWSSNTLTFGGGTKVEIKRTVAAPSVFIFPPSDEQLKSGTASVVCLLNNFYPREAKVQWKVDNALQSGNSQESVTEQDSKDSTYSLSSTLTLSKADYEKHKVYACEVTHQGLSSPVTKSFNRGEC
chain 2: DIQMTQSPSSVSASVGDRVTITCRASQGIYSWLAWYQQKPGKAPNLLIYTASTLQSGVPSRFSGSGSGTDFTLTISSLQPEDFATYYCQQANIFPLTFGGGTKVEIKSSASTKGPSVFPLAPSSKSTSGGTAALGCLVKDYFPEPVTVSWNSGALTSGVHTFPAVLQSSGLYSLSSVVTVPSSSLGTQTYICNVNHKPSNTKVDKKVEPKSC
notes: Four-chain heterodimer format; also called anti-B7H3/CD40 bi-specific antibody Ly1661
Consider B4, for which the binding result with human CD40 [2] is reported as “binds”.

B5: Ly1579 (bispecific antibody)
heavy: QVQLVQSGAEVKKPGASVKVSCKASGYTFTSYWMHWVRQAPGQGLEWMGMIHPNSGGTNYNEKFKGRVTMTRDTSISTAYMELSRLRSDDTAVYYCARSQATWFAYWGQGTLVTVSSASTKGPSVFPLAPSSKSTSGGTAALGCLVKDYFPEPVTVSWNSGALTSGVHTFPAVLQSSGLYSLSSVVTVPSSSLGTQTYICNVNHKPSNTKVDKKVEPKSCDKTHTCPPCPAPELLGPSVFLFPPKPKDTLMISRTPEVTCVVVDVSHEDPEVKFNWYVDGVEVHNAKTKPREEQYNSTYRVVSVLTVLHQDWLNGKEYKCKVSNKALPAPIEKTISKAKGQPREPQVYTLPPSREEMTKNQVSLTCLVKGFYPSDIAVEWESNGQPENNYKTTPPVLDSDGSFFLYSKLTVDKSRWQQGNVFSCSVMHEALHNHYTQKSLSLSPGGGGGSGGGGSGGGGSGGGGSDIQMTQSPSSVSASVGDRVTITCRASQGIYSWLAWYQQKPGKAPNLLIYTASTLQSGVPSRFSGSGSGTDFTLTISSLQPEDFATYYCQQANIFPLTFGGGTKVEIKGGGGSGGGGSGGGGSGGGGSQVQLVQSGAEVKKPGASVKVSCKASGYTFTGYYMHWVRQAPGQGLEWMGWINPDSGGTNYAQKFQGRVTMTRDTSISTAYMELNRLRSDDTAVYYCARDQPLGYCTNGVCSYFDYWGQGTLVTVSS
light: EIVLTQSPATLSLSPGERATLSCRASSSVSSSYLHWYQQKPGQAPRLLIYSTSNLASGIPARFSGSGSGTDFTLTISSLEPEDFAVYYCQHYSGYPLTFGGGTKVEIKRTVAAPSVFIFPPSDEQLKSGTASVVCLLNNFYPREAKVQWKVDNALQSGNSQESVTEQDSKDSTYSLSSTLTLSKADYEKHKVYACEVTHQGLSSPVTKSFNRGEC
notes: Two-chain format; also called anti-B7H3/CD40 bi-specific antibody Ly1579
Turning to B5, the binding result with human CD40 [3] is “binds”.

B6: Ly1663 (bispecific antibody)
heavy: QVQLVQSGAEVKKPGASVKVSCKASGYTFTSYVMHWVRQKPGQGLEWIGYINPYNEGTESTDKFKGRATMTSDKSTSTVYMELSSLRSEDTAVYYCASIYYGYEGTYFGVWGQGTLVTVSSASTKGPSVFPLAPSSKSTSGGTAALGCLVKDYFPEPVTVSWNSGALTSGVHTFPAVLQSSGLYSLSSVVTVPSSSLGTQTYICNVNHKPSNTKVDKKVEPKSCDKTHTCPPCPAPELLGPSVFLFPPKPKDTLMISRTPEVTCVVVDVSHEDPEVKFNWYVDGVEVHNAKTKPREEQYNSTYRVVSVLTVLHQDWLNGKEYKCKVSNKALPAPIEKTISKAKGQPREPQVYTLPPSREEMTKNQVSLTCLVKGFYPSDIAVEWESNGQPENNYKTTPPVLDSDGSFFLYSKLTVDKSRWQQGNVFSCSVMHEALHNHYTQKSLSLSPGK
light: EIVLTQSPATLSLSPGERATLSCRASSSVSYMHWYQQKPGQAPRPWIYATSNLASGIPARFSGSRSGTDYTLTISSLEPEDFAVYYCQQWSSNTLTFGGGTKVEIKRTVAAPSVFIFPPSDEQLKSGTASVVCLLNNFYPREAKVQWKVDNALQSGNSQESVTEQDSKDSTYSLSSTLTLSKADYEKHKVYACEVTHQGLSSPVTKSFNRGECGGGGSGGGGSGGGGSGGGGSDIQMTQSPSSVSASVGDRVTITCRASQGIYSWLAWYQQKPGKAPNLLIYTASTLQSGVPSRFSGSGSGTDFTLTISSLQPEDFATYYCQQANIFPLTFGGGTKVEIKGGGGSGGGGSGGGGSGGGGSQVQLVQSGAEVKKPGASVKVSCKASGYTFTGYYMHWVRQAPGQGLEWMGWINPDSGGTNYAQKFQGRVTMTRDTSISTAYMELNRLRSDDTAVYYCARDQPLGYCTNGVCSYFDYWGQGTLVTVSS
notes: Two-chain format; also called anti-B7H3/CD40 bi-specific antibody Ly1663
B6: the binding result with human CD40 [2] is “binds”.

B7: Ly1426 (antibody, human IgG1, kappa, V domains shown)
VH: QVQLVQSGAEVKKPGASVKVSCKASGYTFTSYVMHWVRQAPGQGLEWMGYINPYNDGTECTDKFKGRVTMTRDTSTSTVYMELSSLRSEDTAVYYCARIYYGYDGTYFGVWGQGTLVTVSS
VL: EIVLTQSPATLSLSPGERATLSCRASSSVSYMHWYQQKPGQAPRLLIYATSNLASGIPARFSGSGSGTDFTLTISSLEPEDFAVYYCQQWSSNTLTFGGGTKVEIKR
notes: also called Ly383_VH-1/Ly383_VL-1; grafted humanized antibody of Ly383
Consider B7, for which, in the experiment with human B7H3, the binding result was “no binding”.

(Values after US20240218069A1 (LYVGEN BIOPHARMA, published 2024).)
